Results published in US20240352105A1, “COMPOSITIONS AND METHODS FOR NEUTRALIZING ANTIGENS” (PACAGEN, INC, priority 2023, published 2024).
Numbering of substitutions follows the chain as printed.

Legend:
[1] = Thermostability (Tm, Tonset, Tagg) by Nanotemper DSF; assay type: physicochemical; set-up: key to Tm2 / Tagg / Tm1 / Tm / Tm3 / Tonset / Tonset ø (mean) / Tagg ø (mean): temperatures in °C; settings: for Tm: single melting point; for Tm1: first melting point; for Tm2: second melting point; for Tm3: third melting point
Method: Isolated VHH clones were further validated by performing an ELISA assay as described in Example 1. Metrics of thermostability including melting temperature (Tm), onset temperature (Tonset), and temperature of aggregation (Tagg), were also tested with increasing temperature in the range of 20° C.-95° C. at the speed of 1° C./min. These measurements were performed using a Nanotemper DSF. When applicable, Tm1 refers to the first melting point observed, Tm2 refers to the second melting point observed, etc., Sequence information for the VHH clones and the binding assay results are summarized in Table 3. The individual binding curves are shown for each candidate in FIGS. 3B-3I.
(§1) Isolated VHH clones were further validated by performing an ELISA assay as described in Example 1. Metrics of thermostability including melting temperature (Tm), onset temperature (Tonset), and temperature of aggregation (Tagg), were also tested with increasing temperature in the range of 20° C.-95° C. at the speed of 1° C./min. The individual binding curves are shown for each candidate in FIGS. 5B-5H.
as §1, with “7B-7P.” for “5B-5H.”
The detailed thermostability graphs used to determine the Tm, Tonset, and Tagg are illustrated in FIGS. 19A-19I and raw data is summarized in Table 23. Any subsequent melting points observed (Tm1, Tm2, Tm3, etc.) are separated by commas.

[2] = molecular target: T1, recombinant His-tagged Can f2 (dog (Canis familiaris), UniProt O18874 19-180); experiment: ELISA, antigen coated
T1 construct: also called Can f2-His; recombinant Can f2; not shown: His tag
T1 sequence (looked up): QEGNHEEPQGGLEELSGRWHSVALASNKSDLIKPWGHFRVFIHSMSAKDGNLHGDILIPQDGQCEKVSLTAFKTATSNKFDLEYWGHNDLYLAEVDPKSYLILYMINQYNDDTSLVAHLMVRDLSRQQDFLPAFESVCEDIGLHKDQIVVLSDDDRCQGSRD
Method: (§2) 2 microgram per milliliter (μg/mL) target antigen is coated in a 96-well plate and ELISA assay is performed after incubation with candidate VHHs. The binding EC50 of each clone is calculated using Prism GraphPad. The positive control antibody is involved as an internal control.
as §1, with “(Tₘ),” for “(Tm),”, “(Tₒₙₛₑₜ),” for “(Tonset),”, “7B-7P.” for “5B-5H.”

[3] = molecular target: T2, recombinant His-tagged Der p1 (dust mite, UniProt P08176 99-320, limits assumed); experiment: ELISA, antigen coated on plate
T2 construct: Recombinant His-tagged protein made by the applicant; also called Der p1-His; Der pl; not shown: His tag
T2 sequence (looked up): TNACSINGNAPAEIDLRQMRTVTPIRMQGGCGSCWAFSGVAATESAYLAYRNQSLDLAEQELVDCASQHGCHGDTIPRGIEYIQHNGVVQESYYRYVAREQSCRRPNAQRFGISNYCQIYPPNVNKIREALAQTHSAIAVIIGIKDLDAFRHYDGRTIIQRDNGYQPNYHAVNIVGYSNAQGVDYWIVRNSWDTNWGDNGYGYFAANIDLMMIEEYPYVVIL
Method: as §2
Isolated VHH clones were further validated by performing an ELISA assay as described in Example 1. The individual binding curves are shown for each candidate in FIGS. 9A-9K.

[4] = anti-Can f2 VHH, 20° C.-95° C. at 1° C./min
[5] = anti-Can f2 VHH, in °C (unit assumed)
[6] = Average of two replicates, anti-Fel d1 VHH

B1: SDAB22118-1-B11 (VHH)
VHH: AVQLVESGGGLVQPGGSLRLSCAASGFTFSNYYMSWYRQAPGKEREWVAFITSTGSSTNYANSVKGRFTASRDNAKNTVYLQMNSLKPEDTAVYYCKTRLWGNDYWGKGTLVTVSS
notes: anti-Can f2 alpaca VHH; prokaryotic expression
B1 gave a Tagg [1, 4] of 44.54, a Tm [1, 5] of 55.17 and an EC50 [2] of 0.164 µg/mL.

B2: SDAB22118-189-192-1-C10 (VHH)
VHH: EVQLVESGGGLVQAGGSLRLSCAASGRTFSEYIMGWFRQAPGKERVFVSTISKSGAITNYADSVQGRFTISRDNAKNTVYLQMNSLKPEDSAVYYCAAGPLLSPAGRQYDYWGQGTQVTVSS
notes: as for B1
B2 gave an EC50 [2] of 0.0217 µg/mL.

B3: DAB22110-1-1-C3 (protein)
VHH: QLQLVESGGGLVQPGGSLRLSCEASGFTFKYYTMSWYRQAPGKERELVATITNGDRTNYADSVKGRFTISRDNAKNTLYLQMNSLKPYDTAVYYCNRHLPLLQIWGQGTQVTVSS
For B3, the “Tagg ø (mean)” value [1, 6] was 58.93, the “Tonset ø (mean)” value [1, 6] was 58.06 and the “Tm ø (mean), first melting point (Tm1)” value ([1]; Average of two replicates, anti-Fel d1 VHH, in °C (unit assumed)) was 66.50. For the same molecule, the Tagg ([1]; Replicate 1) was 59.02, the Tonset ([1]; Replicate 1) was 58.17 and the “Tm, first melting point (Tm1)” value ([1]; Replicate 1, in °C (unit assumed)) was 66.50. The Tagg ([1]; Replicate 2) was 58.85, the Tonset ([1]; Replicate 2) was 57.94 and the “Tm, first melting point (Tm1)” value ([1]; Replicate 2, in °C (unit assumed)) was 66.51.

B4: SDAB22118-189-192-1-E08 (VHH)
VHH: AVQLVESGGGLVQPGGSLRLSCVASGSSSRNYAMGWYRQAPGNEREFVAVITSRGYTHYANSVSGRFTISRDHAKDTAYLQMNSLKPEDTAVYYCNTQAGLLPFMTVYDWGTGTQVTVSS
notes: as for B1
B4 showed an EC50 [2] of 0.00411 µg/mL.

B5: SDAB22129-55-35-46-49-1-A03 (VHH)
VHH: QVQLVESGGGLVQAGGSLRLSCAVSGRTVSRNVMGWFRQAPGKEREFVAGIGFSGGSTYYADSVKGRFTISRDNAKNTVYLEMNRLQPEDTAVYYCAAPSLPLLTSDLHDYDYWGQGTQVTVSS
notes: Expressed from a prokaryotic vector
For B5, the EC50 [3] was 0.0291 µg/mL.

B6: SDAB22118-3-G05 (VHH)
VHH: AVQLVESGGGLVQAGGSLRLSCAASGRTFNNSVMGWFRQAPGKEREFVAAISRSGAFAHYAESVEGRFTISRDNAKNTVYLQMNSLKPEDTAVYYCAAGAILLPTERRYDYWGQGTQVTVSS
notes: as for B1
B6 showed an EC50 [2] of 0.149 µg/mL.

B7: SDAB22118-1-D05 (VHH)
VHH: B6 VHH with A1Q, R19G, S32Y, A56S, A58T, S63A, E65Q, N77I, L103M, R108T
notes: as for B1
B7 showed a Tagg [1, 4] of 39.54, a Tm1 [1, 5] of 48.35 and a Tm2 [1, 5] of 58.58. For the same molecule, the Tm3 [1, 5] was 64.58 and the EC50 [2] was 0.0762 µg/mL.

B8: SDAB22118-1-F04 (VHH)
VHH: QVQLVESGGGLVQPGGSLRLSCAYSGFTLDNNVIGWFRQAPGKEREFVAAISRSGAFTHYTESVQGRFTISRDNAKNTVYLQMNSLKPEDTAVYYCAAGAILLPTERRYDYWGQGTQVTVSS
notes: as for B1
In the case of B8, the Tagg [1, 4] is reported as 48.08, the Tm [1, 5] is reported as 58.63 and the EC50 [2] is reported as 0.0639 µg/mL.

B9: SDAB22129-55-35-46-49-1-D04 (VHH)
VHH: QLQLVESGGGLVQPGGSLRLSCVISGGTFHPYPIGWFREAPGKEREGVLCINSGGQSEISANSAHDPKYADSVKGRFTISRDNAANTVYLQMNNLEPGDTAVYYCAAPREIYVDPYCPTYAYEYWGQGTQVTVSA
Molecule B9 has an EC50 [3] of 0.0621 µg/mL.

B10: SDAB22118-189-192-1-E09 (VHH)
VHH: EVQLVESGGGLVQPGGSLRLSCAASGTIFLINRMGWYRQAPGKQRELVATSFTSGNSTMYADSVKGRFTISRDNAKKTVYLQMNSLKPEDTAVYYCKARISRRYGNWDDYWGQGTQVTVSS
notes: as for B1
With B10 the EC50 [2] was 0.0571 µg/mL.

B11: SDAB22129-55-35-46-49-1-A04 (VHH)
VHH: QLQLVESGGGLVQPGGSLRLSCAASGRVYNSWTMAWFRQAPGKEREFVGAFSLLDSGTRYADSLKDRVAISRDDAANTQWLQLSALKPEDTAVYYCAAKSGTIRATSEGQYNYWGQGIQVTVSS
notes: as for B5
B11 gave an EC50 [3] of 3.41 µg/mL.

B12: SDAB22118-189-192-1-E10 (VHH)
VHH: AVQLVDSGGGLVQTGGSLRLSCAASGTIFSINRMAWYRQAPGKQRELVASIFFSGGITHYADFVKGRFTISRDNAKNTMYLQMNSLKPEDTAVYYCKGVIAPNYRRTSNFQDYWGQGTQVTVSS
notes: as for B1
B12 gave an EC50 [2] of 0.0427 µg/mL.

B13: SDAB22118-2-G01 (VHH)
VHH: AVQLVDSGGGLVQAGDSLRLSCVASGRTFSSYVMGWFRQAPGKERLIVATISKSGSLTHYADSVEGRFTISRDNAKNTVYLQMNSLEPEDTAVYYCTPVSDLTGRRLGSYWGQGTQVTVSS
notes: as for B1
In the case of B13, the Tagg [1, 4] is reported as 38.93, the Tm [1, 5] is reported as 43.71 and the EC50 [2] is reported as 0.0736 µg/mL.

B14: SDAB22118-3-D01 (VHH)
VHH: QVQLVESGGGLVQAGDSLRLSCAASGRSFSNYVMNWFRQAPGKEREFVAAISRSGRSTFYADSVKGRFTISRDNPKATVYLQMNSLVIEDTAVYFCAAASDITSMRSLAAITSWGQGTQVIVSS
notes: as for B1
With B14 the EC50 [2] was 0.429 µg/mL.

B15: SDAB22118-189-192-1-H03 (VHH)
VHH: EVQLVESGGGLVQARGSLRLSCAASGRTFNNYAMGWFRQAPGKEREFVAAIASNTGTTYYAGSVKGRFAISRDNAKNTVDLHMNSLKPEDTAVYYCALGPLRLGWWYDSRPYDYWGQGTQVTVSS
notes: as for B1
In the case of B15, the EC50 [2] is reported as 0.0575 µg/mL.

B16: SDAB22118-3-F08 (VHH)
VHH: QVQLVESGGGLVQPGESLRLSCAASGSIFSIYRMGWYRQAPGEQREHVATVTSGGGTGYADSVKGRFTIYRDNAKNTVYLQMNSLKPEDTAVYSCYAIPKSWSRTSEYSWGQGTQVTVSS
notes: as for B1
For B16, the EC50 [2] was 0.0595 µg/mL.

B17: SDAB22118-1-D08 (VHH)
VHH: EVQLVESGGGLVQPGGSLRLSCVVSGSIFSDNAMGWYRQAPGKQREMVAIISSVGTTNNVDSVNGRFTISRDNAKNTVYLQMNSLKPEDTAVYYCKDFSAPRYWGQGTQVTVSS
notes: as for B1
In the case of B17, the Tagg [1, 4] is reported as 40.82, the Tm1 [1, 5] is reported as 38.89 and the Tm2 [1, 5] is reported as 43.62. It also gave a Tm3 [1, 5] of 54.69 and an EC50 [2] of 0.0486 µg/mL.

B18: SDAB22118-189-192-1-C05 (VHH)
VHH: QVQLVESGGGGVQAGGSLRLSCVASQSHFGYNVMGWYRQAPGRQRELVATIISSGGTNYADSVKGRFTISRDNAKNTVHLSMDSLNVEDTAVYFCYAKGVWLGREYWGQGTQVTVSS
notes: as for B1
In the case of B18, the EC50 [2] is reported as 0.0325 µg/mL.

B19: SDAB22129-55-35-46-49-1-G09 (VHH)
VHH: QVKLEESGGGAVQPGGSLRLSCTASGQTFSNYIISWFRQAPGKEREFVVGISKSGGRTYYADSAKGRFTISRDNAKNTVYLQMSSLKPEDTAVYYCAADGLVLTAAAAEYDYWGQGTQVTVSS
notes: as for B5
Work on B19 yielded an EC50 [3] of 0.154 µg/mL.

B20: SDAB22118-3-B02 (VHH)
VHH: AVQLVDSGGGLVQPGGSLRLSCAASGRTFSYYAMGWFRQALGKEREFVAASSRTGRVTNYADSVKGRFTISRDNAKNTVYLQMNSLKPEDTAIYYCAADDRFYGGDNPAFYNSWGQGTQVTVSS
notes: as for B1
B20 gave an EC50 [2] of 0.00759 µg/mL.
